Read-outs that look alike come from different tables or passages of the source. Where no end group is shown, it is not given here.
Assays:
[1] = target: natriuretic peptide receptor on C3H10T1/2 cells; experiment: cell-based or functional assay
[2] = target: natriuretic peptide receptor on C3H10T1/2 cells; experiment: cell-based or functional assay; remark: listed apart in the source

| % relative binding (cGMP, Biotrak EIA, peptide at 10^-6 M) [1] [%] | % relative binding (cGMP, Biotrak EIA, peptide at 10^-6 M) [2] [%] | Binder |
| --- | --- | --- |
| 49.1 | – | CFGLKLARIGSMSGLGC [CNP variant SEQ ID NO:7] |
| – | -10.8 | CWGLKLDRIGSMSGLGC [CNP variant SEQ ID NO:31] |
| – | 29.7 | CFGLLLDRIGSMSGLGC [CNP variant SEQ ID NO:43] |
| 21.7 | – | CHFGLKLDRIGSMAC [CNP variant SEQ ID NO:12] |
| – | 21.5 | CFGLKLDKIGSMSGLGC [CNP variant SEQ ID NO:49] |
| 17.3 | – | CFGLKLDRIGSMC [CNP variant SEQ ID NO:16] |
| – | 15.3 | CFGLKLDRIGSMSLLGC [CNP variant SEQ ID NO:59] |
| 4.2 | – | CFGLKLDRIGC [CNP variant SEQ ID NO:22] |
| – | 66.9 | CFGLKLDRIGSKSGLGC [CNP variant SEQ ID NO:67] |
| – | 27.8 | CFGLKLDRIGGMSGLGC [CNP variant SEQ ID NO:55] |
| – | -17.1 | CFGLKLQRIGSMSGLGC [CNP variant SEQ ID NO:36] |
| 18.4 | – | CFGLKLDAIGSMSGLGC [CNP variant SEQ ID NO:8] |
| – | -1.95 | CFGLKLDRTGSMSGLGC [CNP variant SEQ ID NO:53] |
| – | 9.45 | CFGLKLERIGSMSGLGC [CNP variant SEQ ID NO:35] |
| – | 54.5 | CFGLKLDRIGAMSGLGC [CNP variant SEQ ID NO:54] |
| – | 62.5 | CFGLKLDRIGSSSGLGC [CNP variant SEQ ID NO:68] |
| 22.7 | – | CFGLKLDRIGSC [CNP variant SEQ ID NO:21] |
| – | -10.1 | CFGLKLDRIGSMSGGGC [CNP variant SEQ ID NO:64] |
| 3.8 | – | CHFGLKLDRIC [CNP variant SEQ ID NO:23] |
| – | -5.85 | CAGLKLARIGSMSGLGC [CNP variant SEQ ID NO:24] |
| – | 5.7 | CHGLKLDRIGSMSGLGC [CNP variant SEQ ID NO:33] |

| % relative binding (cGMP, Biotrak EIA, peptide at 10^-6 M) [1] [%] | % relative binding (cGMP, Biotrak EIA, peptide at 10^-6 M) [2] [%] | Binder |
| --- | --- | --- |
| – | 64.2 | CFGVKLDRIGSMSGLGC [CNP variant SEQ ID NO:42] |
| – | 66.2 | CFGLKLDRIGSHSGLGC [CNP variant SEQ ID NO:66] |
| – | 13.5 | CFGLKLDHIGSMSGLGC [CNP variant SEQ ID NO:48] |
| 11.5 | – | CFGLKLDRAGSMSGLGC [CNP variant SEQ ID NO:9] |
| – | 88.1 | CFGLKIDRIGSMSGLGC [CNP variant SEQ ID NO:46] |
| – | 6.25 | CLGLKLDRIGSMSGLGC [CNP variant SEQ ID NO:29] |
| – | 5.42 | CFGLMLDRIGSMSGLGC [CNP variant SEQ ID NO:44] |
| – | -10.4 | CAGLKLARIGSASGLGC [CNP variant SEQ ID NO:27] |
| 11.9 | – | CHFGLKLDRIGSC [CNP variant SEQ ID NO:20] |
| – | 51.3 | CFGLKLDRIGSMSGMGC [CNP variant SEQ ID NO:62] |
| – | 13.9 | CIGLKLDRIGSMSGLGC [CNP variant SEQ ID NO:28] |
| – | 27.1 | CFGLKLDRVGSMSGLGC [CNP variant SEQ ID NO:52] |
| – | -6.9 | CTGLKLDRIGSMSGLGC [CNP variant SEQ ID NO:34] |
| – | 17.2 | CFGLKLNRIGSMSGLGC [CNP variant SEQ ID NO:37] |
| – | -1.34 | CMGLKLDRIGSMSGLGC [CNP variant SEQ ID NO:30] |
| – | 20.2 | CFGAKLDRIGSMSGLGC [CNP variant SEQ ID NO:40] |
| 25.9 | – | CHFGLKLDRIGSMSC [CNP variant SEQ ID NO:11] |
| – | 53.6 | CFGLKLDRIGSMSALGC [CNP variant SEQ ID NO:58] |
| – | 74.1 | CFGLKLDRIGTMSGLGC [CNP variant SEQ ID NO:56] |
| – | -1.11 | CFGLKLDRIGSMSGAGC [CNP variant SEQ ID NO:63] |
| – | 7.78 | CFGLKLMRIGSMSGLGC [CNP variant SEQ ID NO:39] |

| % relative binding (cGMP, Biotrak EIA, peptide at 10^-6 M) [1] [%] | % relative binding (cGMP, Biotrak EIA, peptide at 10^-6 M) [2] [%] | Binder |
| --- | --- | --- |
| – | 12 | CFGLKLDQIGSMSGLGC [CNP variant SEQ ID NO:50] |
| 11.8 | – | CFGLKLDRIGSQC [CNP variant SEQ ID NO:18] |
| – | 66.7 | CFGLKVDRIGSMSGLGC [CNP variant SEQ ID NO:47] |
| 26.5 | – | CHFGLKLDRIGAQSC [CNP variant SEQ ID NO:13] |
| 43.8 | – | CAGLKLDRIGSMSGLGC [CNP variant SEQ ID NO:6] |
| – | 7.23 | CFGLKLIRIGSMSGLGC [CNP variant SEQ ID NO:38] |
| 20.6 | – | CFGLKLDRIGAQSC [CNP variant SEQ ID NO:15] |
| – | 49.2 | CFGLKLDRIGSMSKLGC [CNP variant SEQ ID NO:60] |
| – | 62.1 | CFGLKLDRIGSGSGLGC [CNP variant SEQ ID NO:69] |
| – | 11.3 | CFGLKADRIGSMSGLGC [CNP variant SEQ ID NO:45] |
| 3.8 | – | CFGLKLDRIGAQC [CNP variant SEQ ID NO:19] |
| – | -3.47 | CFGLKLDRIGSMSGQGC [CNP variant SEQ ID NO:61] |
| – | 66.5 | CFGLKLDRIGSWSGLGC [CNP variant SEQ ID NO:65] |
| – | 47.4 | CFGIKLDRIGSMSGLGC [CNP variant SEQ ID NO:41] |
| – | 14.2 | CFGLKLDRLGSMSGLGC [CNP variant SEQ ID NO:51] |
| – | 27.4 | CFGLKLDRIGNMSGLGC [CNP variant SEQ ID NO:57] |
| 3.4 | – | CFGLKLDRIGAMC (ends and bridges not checked; cysteine pairing not given here) [CNP variant SEQ ID NO:17] |
| – | 5.75 | CFGLKLARIGSASGLGC [CNP variant SEQ ID NO:26] |
| – | 5.74 | CVGLKLDRIGSMSGLGC [CNP variant SEQ ID NO:32] |
| 29.9 | – | CFGLKLDRIGSMSC [CNP variant SEQ ID NO:14] |
| 100 | – | GLSKGCFGLKLDRIGSMSGLGC [CNP 1-22 (native human CNP, 22-mer)] |

From US20040138134A1
